Drawing on patent CN110172090A, this text covers Kd and EC50 for two molecules.

Experiment [1] addresses OX40 (Kd检测ELISA法的抗原) (human) (UniProt P43489). Description: ELISA-based Kd method (ELASA法).
Experiment [2] has as its target 人OX40 (膜表面过表达人OX40的293T细胞系) (human) (UniProt P43489). Description: flow cytometry on 293T cells overexpressing human OX40.
For experiment [3] the target is unchanged. The experiment in a line: flow cytometry on 293T cells overexpressing human OX40, PE goat anti-mouse secondary.

In turn, “CD40 Monoclonal Antibody (HB14), PE, Catalog#CD4004, Invitrogen” gave a Kd in experiment [1] of 9.8 nM. The same molecule had an EC50 in experiment [2] of 2.5 nM.

B1: 抗人OX40单克隆抗体 (杂交瘤OX401M) (antibody, part only; not given: constant regions, V domains shown, part only)
VH: QVQLAQPGAELVRPGASVKQYCKASGYSGSSYTIHWVKQTPSRGLEWIGAIYPGNGDTSWNQKFKGKATITADKSSSTAYMRLSSLTSEDSAISYCARSTYYYGAYYFDYWGQGSTL
On to B1, for which, in experiment [1], the Kd amounted to 0.0273 nM. Also, in experiment [3], the EC50 was 0.0125 nM.
